Molecular target: Streptococcus pyogenes (Spy) dCas9 (Streptococcus pyogenes) (UniProt Q99ZW2)
Test: cell-based or functional assay

Substance | RFP fluorescence relative to a strain with no guide RNA (dCas9-based repression of a chromosomal RFP reporter in E. coli) [%]
AcrIIA2 (LMOG_03147) | 25
AcrIIA4 | 85

Reference: US20200087354A1
